Molecular target: HLA-A*02 (human)
Assay: UV-ligand exchange, anti-b2m ELISA; grade: exchange yield >=50%

Binder | peptide exchange yield
LLADIGGDPFAA | 50 to 75%
RLPDIPLRQV | 50 to 75%
SMGDHLWVA | 50 to 75%
ALLGKIEKV | 50 to 75%
FLLGFIPAKA | 50 to 75%
SLFEWFHPL | 50 to 75%
SLLSPEHLQYL | 50 to 75%
SILDIVTKV | 50 to 75%
RLFEENDVNL | 50 to 75%
RLTESVLYL | 50 to 75%
ALLEMDARL | 50 to 75%
GLAPGGLAVV | 50 to 75%
SLWEGGVRGV | 50 to 75%
QLLPNLRAV | 50 to 75%
ALSSKPAEV | 50 to 75%
KLDNNLDSV | 50 to 75%
SLWSVARGV | 50 to 75%
KMFESFIESV | 50 to 75%
RLFPDGIVTV | 50 to 75%
SLAVLVPIV | 50 to 75%
ALFPALRPGGFQA | 50 to 75%
RILPKVLEV | 50 to 75%
RLPPDTLLQQV | 50 to 75%
KLYDLELIV | 50 to 75%
RLAAFYSQV | 50 to 75%
LLHEENFSV | 50 to 75%

Binder | peptide exchange yield
RTIEYLEEV | 50 to 75%
ALHEEVVGV | 50 to 75%
SLAESSFDV | 50 to 75%
SICNGVPMV | 50 to 75%
KLSEAVTSV | 50 to 75%
RLLDEQFAV | 50 to 75%
SLLNFLQHL | 50 to 75%
SLHNGVIQL | 50 to 75%
KLISSYYNV | 50 to 75%
ALADKELLPSV | 50 to 75%
LLIDDEYKV | 50 to 75%
RLLDVLAPLV | 50 to 75%
KLTDHLKYV | 50 to 75%
HLAKVTAEV | 50 to 75%
RMSDVVKGV | 50 to 75%
NVFDGLVRV | 50 to 75%
GLFAPVHKV | 50 to 75%
FLWERPTLLV | 50 to 75%
RMLIKLLEV | 50 to 75%
QLTPVLVSV | 50 to 75%
GLLDNPELRV | 50 to 75%
NLASFIEQVAV | 50 to 75%
ALLNQHYQV | 50 to 75%
KLNDLIQRL | 50 to 75%
SLIPAVLTV | 50 to 75%
ALRGEIETV | 50 to 75%

Continued, values first:

peptide exchange yield | Binder
50 to 75% | YLITGNLEKL
50 to 75% | YLWDLDHGFAGV
50 to 75% | VVLDGGQIVTV
50 to 75% | TLYALSHAV
50 to 75% | YLGPHIASVTL
50 to 75% | TLFEHLPHI
50 to 75% | YLDKNLTVSV
50 to 75% | YLLEKFVAV
50 to 75% | TLAAIIHGA
50 to 75% | YAFPKSITV
50 to 75% | TVMDIDTSGTFNV
50 to 75% | YIFTTPKSV
50 to 75% | TLLKKISEA
50 to 75% | VLSQVYSKV
50 to 75% | TLLDSPIKV
50 to 75% | VLDEPYEKV
50 to 75% | TLAELGAVQV
50 to 75% | YLLHFPMAL
50 to 75% | YLDDEKNWGL
50 to 75% | SQADVIPAV
50 to 75% | VLLAQIIQV
50 to 75% | VVLDDKDYFL
50 to 75% | SVWFGPKEV

Source: patent US20160250307A1 (IMMATICS BIOTECHNOLOGIES, published 2016)
